The assay addresses recombinant zika virus (ZIKV) non-structural 1 (NS1) protein (Zika virus). Briefly: SEC; Superdex 200 10/300, elution in 50 mM CAPS pH 11.0; supernatants of NS1 inclusion bodies subjected to 2.4 kbar/0.4 kbar at pH 10.0 to 12.5, with or without Arg. In general terms: In gel filtration, larger molecules generally elute earlier.

The term stoichiometry N denotes a count of units in the complex or per binding partner. For “recombinant zika virus (ZIKV) non-structural 1 (NS1) protein (natural protein)”, the stoichiometry N was 2.

These data come from paper PMC6291932.
